Experiments:
RBPMS RRM WT = RBPMS RRM WT (human, UniProt Q93062 14-111); experiment: ITC; approaching 2:1 RRM:RNA; ITC: 20 mM Tris-HCl pH 7.5, 100 mM NaCl, 25 C; 0.03-0.05 mM protein in cell, 0.26-0.5 mM RNA in syringe, single-site model; settings: protein: recombinant; tags: 6His-SUMO removed with Ulp1; chain copies: 2; single strand
RBPMS RRM K100E = RBPMS RRM K100E (human, UniProt Q93062 14-111, K100E); experiment: ITC; ITC: 20 mM Tris-HCl pH 7.5, 100 mM NaCl, 25 C; 0.03-0.05 mM protein in cell, 0.26-0.5 mM RNA in syringe, single-site model; settings: protein: recombinant; tags: 6His-SUMO removed with Ulp1; single strand
Sequence of RBPMS RRM K100E (Q93062 14-111 K100E): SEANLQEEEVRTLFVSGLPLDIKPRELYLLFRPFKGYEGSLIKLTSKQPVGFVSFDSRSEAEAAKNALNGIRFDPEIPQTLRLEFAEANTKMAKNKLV

RBPMS RRM F65A = RBPMS RRM F65A (human, UniProt Q93062 14-111, F65A); experiment: as above; settings: protein: recombinant; tags: 6His-SUMO removed with Ulp1; single strand
Sequence of RBPMS RRM F65A (Q93062 14-111 F65A): as the sequence (Q93062 14-111 K100E) above, with F52A, E87K counted along it

RBPMS RRM T103A/K104A = RBPMS RRM T103A/K104A (human, UniProt Q93062 14-111, T103A;K104A); experiment: as above; settings: protein: recombinant; tags: 6His-SUMO removed with Ulp1; single strand
Sequence of RBPMS RRM T103A/K104A (Q93062 14-111 T103A/K104A): as the sequence (Q93062 14-111 K100E) above, with E87K, T90A, K91A counted along it

RBPMS RRM F27A = RBPMS RRM F27A (human, UniProt Q93062 14-111, F27A); experiment: as above; settings: protein: recombinant; tags: 6His-SUMO removed with Ulp1; single strand
Sequence of RBPMS RRM F27A (Q93062 14-111 F27A): as the sequence (Q93062 14-111 K100E) above, with F14A, E87K counted along it

RBPMS RRM E97A/K100A = RBPMS RRM E97A/K100A (human, UniProt Q93062 14-111, E97A;K100A); experiment: ITC; Kd printed only in figure; ITC: 20 mM Tris-HCl pH 7.5, 100 mM NaCl, 25 C; 0.03-0.05 mM protein in cell, 0.26-0.5 mM RNA in syringe, single-site model; settings: protein: recombinant; tags: 6His-SUMO removed with Ulp1; single strand
Sequence of RBPMS RRM E97A/K100A (Q93062 14-111 E97A/K100A): as the sequence (Q93062 14-111 K100E) above, with E84A, E87A counted along it

Sequence of RBPMS RRM WT (Q93062 14-111): as the sequence (Q93062 14-111 K100E) above, with E87K counted along it

GCACUUUCAACUUCACU (ssRNA) [ETF1 17-nt RNA]
Kd (RBPMS RRM WT): 900 nM
binding result (RBPMS RRM K100E): no binding
binding result (RBPMS RRM F65A): no binding
binding result (RBPMS RRM T103A/K104A): no binding
binding result (RBPMS RRM F27A): no binding
binding signal (RBPMS RRM E97A/K100A): ~10 fold reduced affinity vs WT

— PMC4783296, “Structural basis underlying CAC RNA recognition by the RRM domain of dimeric RNA-binding protein RBPMS”
